Experimental data from publication PMC9533685, “NICD3 regulates the expression of MUC5AC and MUC2 by recruiting SMARCA4 and is involved in the differentiation of mucinous colorectal adenocarcinoma” (Molecular Oncology, 2022).

T1: His-tagged human NOTCH3 intracellular domain (aa 1665-2321) (human, UniProt Q9UM47 1665-2321)
T1 construct: human NOTCH3 intracellular domain, aa 1665-2321; also called His-NICD3; source: E. coli, purified (GeneCreate Biological Engineering)
T1 sequence (looked up): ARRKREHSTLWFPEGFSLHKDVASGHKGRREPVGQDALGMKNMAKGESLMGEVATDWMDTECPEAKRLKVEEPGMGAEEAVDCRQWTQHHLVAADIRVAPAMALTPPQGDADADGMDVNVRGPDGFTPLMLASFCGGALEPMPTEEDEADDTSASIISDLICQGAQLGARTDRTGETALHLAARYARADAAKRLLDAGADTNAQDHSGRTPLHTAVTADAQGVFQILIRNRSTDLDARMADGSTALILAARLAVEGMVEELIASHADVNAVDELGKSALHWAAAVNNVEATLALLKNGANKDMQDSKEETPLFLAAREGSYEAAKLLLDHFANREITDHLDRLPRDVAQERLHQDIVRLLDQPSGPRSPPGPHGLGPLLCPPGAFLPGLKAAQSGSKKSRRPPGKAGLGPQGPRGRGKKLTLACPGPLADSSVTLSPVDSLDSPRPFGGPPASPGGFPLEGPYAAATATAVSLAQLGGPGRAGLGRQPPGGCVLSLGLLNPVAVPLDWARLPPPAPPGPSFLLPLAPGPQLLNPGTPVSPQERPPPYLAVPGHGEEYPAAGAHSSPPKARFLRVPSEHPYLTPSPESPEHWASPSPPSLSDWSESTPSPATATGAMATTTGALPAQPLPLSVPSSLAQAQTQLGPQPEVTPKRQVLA


Molecular target: T1, His-tagged human NOTCH3 intracellular …
Test: pull-down; GST pull-down: purified GST-tagged SMARCA4 segments mixed with His-NICD3 on ice for 3 h, beads, five washes, elution with 15 mM reduced glutathione; blots with anti-GST and anti-His; GST as negative control
Conditions: both partners purified

binding result	Binder
binds	GST-tagged SMARCA4 BROMO domain (aa 1455-1566) (domain or fragment, human, UniProt P51532 1455-1566, looked up, also called SMART BROMO domain; source: E. coli, purified (GeneCreate Biological Engineering)) PPNLTKKMKKIVDAVIKYKDSSSGRQLSEVFIQLPSRKELPEYYELIRKPVDFKKIKERIRNHKYRSLNDLEKDVMLLCQNAQTFNLEGSLIYEDSIVLQSVFTSVRQKIEK
binds	MSDLPVKVIHVESGKILTGTDAPKAGQLEAWLEMNPGYEVAPRSD (domain or fragment, human, UniProt P51532 612-656, looked up, also called SMART BRK domain; source: E. coli, purified (GeneCreate Biological Engineering)) [GST-tagged SMARCA4 BRK domain (aa 612-656)]
